Experimental data from patent US20100222269A1 (Novo Nordisk, published 2010).
Starred links: 1 amine or outer side, 2 acyl side, 3 side chain; linkers in the order of their positions; H or OH if unused. Positions of bridges follow the written chain, without caps; N, C: chain ends. Non-standard residues stand in square brackets, D forms with d. Groups on a side chain read outwards from the residue. No end group written: not given here. *: point of attachment. C20 diacid = O=C(O)CCCCCCCCCCCCCCCCCCC(=O)*; C18 diacid = O=C(O)CCCCCCCCCCCCCCCCC(=O)*; 17‑carboxyheptanoyl = not defined here; γGlu = O=C(O)[C@H](CCC(=O)[*:2])N[*:1]; AEEA = NCCOCCOCC(=O)O

B1: N-alpha-[(S)-4-carboxy-4-(17-carboxyheptadecanoylamino)butyryl]-[Arg18,Leu23,Val26]-pramlintide (2-37) (peptide)
peptide: CNTATCATQRLANFLVRSSNNLGPVLPPTNVGSNTY
modifications: N-alpha-[(S)-4-carboxy-4-(17-carboxyheptadecanoylamino)butyryl] on the N-terminal Cys2; disulfide bridge between the two Cys; C-terminal amide
B2: N-alpha-(2-{2-[2-(2-{2-[2-((S)-4-Carboxy-4-{4-carboxy-4-[4-carboxy-4-(17-carboxyheptadecanoylamino)butyrylamino]butyrylamino}butyrylamino) … (peptide)
peptide: CNTATCATQRLANFLVRSSNNLGPVLPPTNVGSNTY
modifications: N-alpha-(2-{2-[2-(2-{2-[2-((S)-4-Carboxy-4-{4-carboxy-4-[4-carboxy-4-(17-carboxyheptadecanoylamino)butyrylamino]butyrylamino}butyrylamino) ethoxy}ethoxy]acetylamino)ethoxy}ethoxy]acetyl) on the N-terminal Cys2; disulfide bridge between the two Cys; C-terminal amide
B3: N-alpha-(17-carboxyheptanoyl)-Glu-[Glu1]-pramlintide (1-37) (peptide)
peptide: {17‑carboxyheptanoyl}-EECNTATCATQRLANFLVHSSNNFGPILPPTNVGSNTY-NH2
modifications: disulfide 3-8 (inferred); reading uncertain; also: printed as N-alpha-(17-carboxyheptanoyl)-Glu-[Glu1]-pramlintide (1-37)
B4: N-alpha-(17-carboxyheptanoyl)-[Arg18]-pramlintide (1-37) (peptide)
peptide: {17‑carboxyheptanoyl}-KCNTATCATQRLANFLVRSSNNFGPILPPTNVGSNTY-NH2
modifications: disulfide 2-7 (inferred); reading uncertain; also: printed as N-alpha-(17-carboxyheptanoyl)-[Arg18]-pramlintide (1-37)
B5: N-alpha-(17-carboxyheptanoyl)-[Arg18,Leu23,Val26]-pramlintide (2-37) (peptide)
peptide: {17‑carboxyheptanoyl}-CNTATCATQRLANFLVRSSNNLGPVLPPTNVGSNTY-NH2
modifications: disulfide 1-6 (inferred); reading uncertain; also: printed as N-alpha-(17-carboxyheptanoyl)-[Arg18,Leu23,Val26]-pramlintide (2-37)
B6: N-alpha-[(S)-4-carboxy-4-(19-carboxynonadecanoylamino)butyryl]-Glu-Glu-Arg-[Glu1]-pramlintide (1-37) (peptide)
peptide: EERECNTATCATQRLANFLVHSSNNFGPILPPTNVGSNTY
modifications: N-alpha-[(S)-4-carboxy-4-(19-carboxynonadecanoylamino)butyryl] on the N-terminal Glu of the extension; disulfide bridge between the two Cys; C-terminal amide

What follows are binders tested against Amylin 3(a) receptor (human calcitonin receptor (CTa) with RAMP-3) on BHK570 cells (human, UniProt P30988 25-474) (assay: cell-based or functional assay).
Sequence of Amylin 3(a) receptor (human calcitonin receptor (CTa) with RAMP-3) on BHK570 cells (P30988 25-474): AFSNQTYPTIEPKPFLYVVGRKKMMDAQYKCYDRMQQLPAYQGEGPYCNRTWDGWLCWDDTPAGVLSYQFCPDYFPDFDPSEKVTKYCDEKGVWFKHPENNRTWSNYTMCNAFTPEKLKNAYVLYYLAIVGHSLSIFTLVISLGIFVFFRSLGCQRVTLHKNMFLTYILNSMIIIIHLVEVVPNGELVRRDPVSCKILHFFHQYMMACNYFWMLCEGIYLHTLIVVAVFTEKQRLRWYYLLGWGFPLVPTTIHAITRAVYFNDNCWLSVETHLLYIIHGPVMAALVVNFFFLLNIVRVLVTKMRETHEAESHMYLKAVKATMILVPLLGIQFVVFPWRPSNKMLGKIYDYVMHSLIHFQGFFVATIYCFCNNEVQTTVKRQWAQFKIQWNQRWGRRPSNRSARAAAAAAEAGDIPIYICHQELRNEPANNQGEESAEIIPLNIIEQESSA
In the case of {C20 diacid}-EKRKCNTATCATQRLANFLVHSSNNFGPILPPTNVGSNTY-NH2 (disulfide 5-10 (inferred)) [N-alpha-(19-carboxynonadecanoyl)-Glu-Lys-Arg-pramlintide (1-37)], the Potency luciferase assay is reported as 0.08 nM.
Binder B1 has a Potency luciferase assay of 0.03 nM.
B2 was tested, and the Potency luciferase assay was 0.9 nM.
{C20 diacid}-ERCNTATCATQRLANFLVHSSNNFGPILPPTNVGSNTY-NH2 (disulfide 3-8 (inferred)) [N-alpha-(19-carboxynonadecanoyl)-Glu-[Arg1]-pramlintide (1-37)] showed a Potency luciferase assay of 0.1 nM.
With {C20 diacid}-EERECNTATCATQRLANFLVHSSNNFGPILPPTNVGSNTY-NH2 (disulfide 5-10 (inferred)) [N-alpha-(19-carboxynonadecanoyl)-Glu-Glu-Arg-[Glu1]-pramlintide (1-37)] the Potency luciferase assay was 0.08 nM.
For B3, the Potency luciferase assay was 0.4 nM.
With KCK([γGlu-C18 diacid])TATCATQRLANFLVPSSNNFGPILPPTNVGSNTY-NH2 (disulfide 2-7 (inferred)) [N-epsilon3-[(S)-4-carboxy-4-(17-carboxyheptadecanoylamino)butyryl]-[Lys3,Pro18]-pramlintide (1-37)] the Potency luciferase assay was 0.7 nM.
Work on {C20 diacid}-E[AEEA]ECQTATCATQRLANFLVRSSQNLGPVLPPTNVGSNTY-NH2 (disulfide 4-9 (inferred)) yielded a Potency luciferase assay of 0.4 nM.
EERECNTATCATQRLANFLVHSSNNFGPILPPTNVGSNTY-NH2 (disulfide 5-10 (inferred); not fully specified (N-terminus)) was tested, and the Potency luciferase assay was 2 nM.
KCK(C18 diacid)TATCATQRLANFLVHSSNNFGPILPPTNVGSNTY-NH2 (disulfide 2-7 (inferred)) [N-epsilon3-(17-carboxyheptadecanoyl)-[Lys3]-pramlintide (1-37)] gave a Potency luciferase assay of 0.05 nM.
KCK([AEEA-AEEA-γGlu-C20 diacid])TATCATQRLANFLVHSSNNFGPILPPTNVGSNTY-NH2 (disulfide 2-7 (inferred)) gave a Potency luciferase assay of 0.3 nM.
In the case of {C20 diacid-γGlu}-RCNTATCATQRLANFLVHSSNNFGPILPPTNVGSNTY-NH2 (disulfide 2-7 (inferred)) [N-alpha-[(S)-4-carboxy-4-(19-carboxynonadecanoylamino)butyryl]-[Arg1]-pramlintide (1-37)], the Potency luciferase assay is reported as 0.04 nM.
KCNTATCATQRLANFLVHSSNNFGPILPK(C20 diacid)TNVGSNTY-NH2 (disulfide 2-7 (inferred)) [N-epsilon29-(19-carboxynonadecanoyl)-[Lys29]-pramlintide (1-37)] gave a Potency luciferase assay of 5 nM.
B4 was tested, and the Potency luciferase assay was 0.03 nM.
Binder {C20 diacid-γGlu}-KKCNTATCATQRLANFLVHSSNNFGPILPPTNVGSNTY-NH2 (disulfide 3-8 (inferred)) [N-alpha-[(S)-4-carboxy-4-(19-carboxynonadecanoylamino)butyryl]-Lys-pramlintide (1-37)] has a Potency luciferase assay of 0.1 nM.
Binder KCK(C20 diacid)TATCATQRLANFLVHSSNNFGPILPPTNVGSNTY-NH2 (disulfide 2-7 (inferred)) [N-epsilon3-(19-carboxynonadecanoyl)-[Lys3]-pramlintide (1-37)] has a Potency luciferase assay of 0.05 nM.
KCK([AEEA-Glu-Glu-C20 diacid])TATCATQRLANFLVRSSQNLGPVLPPTNVGSNTY-NH2 (disulfide 2-7 (inferred)) gave a Potency luciferase assay of 0.3 nM.
For B5, the Potency luciferase assay was 0.1 nM.
EERECNTATCATQRLANFLVHSSNNFGPILPPTNVGSNTY-NH2 (disulfide 5-10 (inferred); not fully specified (N-terminus)) [N-alpha-[4-(16-1H-tetrazol-5-yl-hexadecanoylsulfamoyl)-butyryl]-Glu-Glu-Arg-[Glu1]pramlintide (1-37)] was tested, and the Potency luciferase assay was 0.09 nM.
With {C20 diacid}-EEEECQTATCATQRLANFLVRSSQNLGPVLPPTNVGSNTY-NH2 (disulfide 5-10 (inferred)) [N-alpha-(19-carboxynonadecanoyl)-Glu-Glu-Glu-[Glu1,Gln3,Arg18,Gln21,Leu23,Val26]-pramlintide (1-37)] the Potency luciferase assay was 2 nM.
For KCNTATCATQRLANFLVHSSNNFGK([γGlu-C18 diacid])ILPPTNVGSNTY-NH2 (disulfide 2-7 (inferred)) [N-epsilon25-[(S)-4-carboxy-4-(17-carboxyheptadecanoylamino)butyryl]-[Lys25]-pramlintide (1-37)], the Potency luciferase assay was 0.09 nM.
KCK([AEEA-4‑(16-1H-tetrazol-5-yl-hexadecanoylsulfamoyl)butyryl])TATCATQRLANFLVHSSNNFGPILPPTNVGSNTY-NH2 (disulfide 2-7 (inferred)) showed a Potency luciferase assay of 0.1 nM.
For B6, the Potency luciferase assay was 0.3 nM.
For {C20 diacid}-EERECQTATCATQRLANFLVRSSQNLGPVLPPTNVGSNTY-NH2 (disulfide 5-10 (inferred)) [N-alpha-(19-carboxynonadecanoyl)-Glu-Glu-Arg-[Glu1,Gln3,Arg18,Gln21,Leu23,Val26]-pramlintide (1-37)], the Potency luciferase assay was 0.09 nM.
Binder KCK([AEEA-AEEA-C18 diacid])TATCATQRLANFLVHSSNNFGPILPPTNVGSNTY-NH2 (disulfide 2-7 (inferred)) has a Potency luciferase assay of 0.1 nM.
With KCK([AEEA-AEEA-γGlu-γGlu-γGlu-C18 diacid])TATCATQRLANFLVPSSNNFGPILPPTNVGSNTY-NH2 (disulfide 2-7 (inferred)) the Potency luciferase assay was 20 nM.
{C20 diacid-γGlu}-CNTATCATQRLANFLVHSSNNFGPILPPTNVGSNTY-NH2 (disulfide 1-6 (inferred)) [N-alpha-[(S)-4-carboxy-4-(19-carboxynonadecanoylamino)butyryl]-pramlintide (2-37)] was tested, and the Potency luciferase assay was 0.1 nM.
For {C20 diacid-γGlu}-RRCNTATCATQRLANFLVHSSNNFGPILPPTNVGSNTY-NH2 (disulfide 3-8 (inferred)) [N-alpha-[(S)-4-carboxy-4-(19-carboxynonadecanoylamino)butyryl]-Arg-[Arg1]-pramlintide (1-37)], the Potency luciferase assay was 0.1 nM.
{C20 diacid-γGlu}-RKCNTATCATQRLANFLVHSSNNFGPILPPTNVGSNTY-NH2 (disulfide 3-8 (inferred)) [N-alpha-[(S)-4-carboxy-4-(19-carboxynonadecanoylamino)butyryl]-Arg-pramlintide (1-37)] showed a Potency luciferase assay of 0.2 nM.
In the case of KCK([γGlu-C18 diacid])TATCATQRLANFLVRSSQNLGPVLPPTNVGSNTY-NH2 (disulfide 2-7 (inferred)), the Potency luciferase assay is reported as 0.04 nM.
Binder {C18 diacid}-EERECNTATCATQRLANFLVHSSNNFGPILPPTNVGSNTY-NH2 (disulfide 5-10 (inferred)) [N-alpha-(17-carboxyheptadecanoyl)-Glu-Glu-Arg-[Glu1]pramlintide (1-37)] has a Potency luciferase assay of 0.06 nM.
For ECK(17‑carboxyheptanoyl)TATCATQRLANFLVESSNNFGPILPPTNVGSNTY-NH2 (disulfide 2-7 (inferred)) [N-epsilon3-(17-carboxyheptanoyl)-[Glu1,Lys3,Glu18]-pramlintide (1-37)], the Potency luciferase assay was 0.03 nM.
K([γGlu-C18 diacid])CGTATCATQRLANFLARSSNNFGPILSPTNVGSNTY-NH2 (disulfide 2-7 (inferred)) was tested, and the Potency luciferase assay was 0.07 nM.
{C20 diacid}-EER[AEEA]ECNTATCATQRLANFLVHSSNNFGPILPPTNVGSNTY-NH2 (disulfide 6-11 (inferred)) showed a Potency luciferase assay of 0.4 nM.
For KCNTATCATQRLANFLVHSSNNFGK([AEEA-AEEA-γGlu-γGlu-γGlu-γGlu-C18 diacid])ILPPTNVGSNTY-NH2 (disulfide 2-7 (inferred)), the Potency luciferase assay was 0.3 nM.
In the case of CK([γGlu-4‑(16-1H-tetrazol-5-ylhexadecanoylsulfamoyl)butyryl])TATCATQRLANFLVHSSNNFGPILPPTNVGSNTY-NH2 (disulfide 1-6 (inferred)), the Potency luciferase assay is reported as 0.04 nM.
With KCK(17‑carboxyheptanoyl)TATCATQRLANFLVRSSNNFGPILPPTNVGSNTY-NH2 (disulfide 2-7 (inferred)) [N-epsilon3-(17-carboxyheptanoyl)-[Lys3,Arg18]-pramlintide (1-37)] the Potency luciferase assay was 0.06 nM.
In the case of KCK([Glu-Glu-Glu-Glu-C20 diacid])TATCATQRLANFLVRSSQNLGPVLPPTNVGSNTY-NH2 (disulfide 2-7 (inferred)), the Potency luciferase assay is reported as 0.6 nM.
KCK([AEEA-AEEA-γGlu-C18 diacid])TATCATQRLANFLVPSSNNFGPILPPTNVGSNTY-NH2 (disulfide 2-7 (inferred)) gave a Potency luciferase assay of 10 nM.
